According to patent US20040063912A1:

Columns and labels:
[1] = molecular target: purified, soluble huFcRn (human) (UniProt P55899); experiment: Biacore (SPR), purified soluble huFcRn
FcRn = experiment: assay not stated; compared with EPO-Fc with native Fc
EPO receptor (EpoR) = experiment: in vitro binding to EpoR; method not stated

## IgG1 (antibody)
[1]
  Kd: 8 nM

## mutated EPO-Fc (Fc modified in three critical amino acid residues in the Fc domain: I253A, H310A, and H435A) (Fc fusion)
FcRn
  reduction in FcRn binding: > 90%

## native huEPO (from UniProt P01588 28-193) (ligand)
EPO receptor (EpoR)
  Kd: 0.2 nM
